Where a chain is given by its changes, count along the chain named.
B1: mAb10966 (antibody, V domains shown)
VH: EVQLVESGGGLVQPGGSLRLSCAASGLTVSSNYMSWVRQAPGKGLEWVSVIYSGGSTFYADSVKGRFTISRDNSKNTLYLQMNSLRPEDTAVYYCAREGRIAATGYGMDVWGQGTTVTVSS
VL: not shown
B2: mAb10971 (antibody, V domains shown)
VH: EVQLVESGGGLIQPGGSLRLSCAASGVTVSSNYMSWVRQAPGKGLEWVSVIYSGGSTFYSDSVKGRFSISRDNSKNTLYLQMNSLRAEDTAVYYCARDLYYYGMDVWGQGTTVTVSS
VL: DIQLTQSPSFLSASVGDRVTITCRASQGISTYLAWYQQKPGKAPKLLIYAASTLQSGVPSRFSGSGSGTEFTLTISSLQPEDFATYYCQQLDSYPGLTFGGGTKVEIKR
B3: mAb10989 (antibody, V domains shown)
VH: QVQLVQSGAEVKKPGASVKVSCKASGYIFTGYYMHWVRQAPGQGLEWMGWINPNSGGANYAQKFQGRVTLTRDTSITTVYMELSRLRFDDTAVYYCARGSRYDWNQNNWFDPWGQGTLVTVSS
VL: QSALTQPASVSGSPGQSITISCTGTSSDVGTYNYVSWYQQHPGKAPKLMIFDVSNRPSGVSDRFSGSKSGNTASLTISGLQAEDEADYYCSSFTTSSTVVFGGGTKLTVLG
B4: mAb10964 (antibody, V domains shown)
VH: QVQLQESGPGLVKPSETLSLTCTVSGGSINNYYWIWIRQPPGKGLEWIGYIYHSGSTNYNPSLKSRVTISVDTSKNQFSLKVSSVTAADTAVYYCANMVRGVYEDDYWGQGTLVTVSS
VL: DIQMTQSPSSLSASVGDRVTITCRASQSISNYLNWYQQKPGKAPKLLIFAASSLRSGVPSRFSGSGSGTDFTLTISSLHPEDFATYYCQQNYNTPLTFGPGTKVDIKR
B5: mAb10967 (antibody, V domains shown)
VH: EVQLVESGGGLVQPGGSLRLSCAASGFTVSSNYMSWVRQAPGKGLEWVSVIYPGGSTFYADSVKGRFTISRDNSKNTLYLQMNSLRAEDTAVYYCARDQRDFAWGQGTLVTVSS
VL: DIQMTQSPSSLSASVGDRVTITCQASQDISNYLNWYQQKPGKAPKLLIYDASNLETGVPSRFSGSGSGTDFTFTISGLQPEDIATYYCQQYDNLPPTFGQGTRLEIKR
B6: mAb10954 (antibody, V domains shown)
VH: EVQLVESGGGLVQPGGSLRLSCAASGITVSSNYMSWVRQAPGKGLEWVSLIYSGGSTYYADSVKGRFTISRDNSKNTLYLQMNSLRVEDTAVYYCARDHGMAAAGYNYWGQGTLVTVSS
VL: B5 VL with S30N, N31K, S76N, G77S, I83F, Y87F, T97A, R103K, L104V
B7: mAb10955 (antibody, V domains shown)
VH: EVQLVESGGGLVQPGGSLRVSCAASGFTVSRNYMSWVRQAPGKGLEWVSVIYSGGSTFYADSVKGRFTISRDNSKNTLYLQMNSLRAEDTAIYYCARYIPRFDPWGQGTLVTVSS
VL: B5 VL with Y36F, K42R, G77S, P96I
B8: mAb10965 (antibody, V domains shown)
VH: EVQLVESGGGLIQPGGSLRLSCAASVFTVSYNYMSWVRQAPGKGLEWVSVIYSGGSTYYADSVKGRFTISRDNSKNTLYLQMNSLRAEDTAVYYCARALPGWGGSFEYFDYWGQGTLVTVSS
VL: not shown
B9: mAb10985 (antibody, V domains shown)
VH: EVQLVESGGGLVQPGRSLRLSCAASGFTFDDYAMHWVRQAPGKGLEWVSGISWNRGSIGYADSVKGRFTISRDNAKNSLYLQMSSLRAEDTALYYCAKDGERWDSVVVPSARNGMDVWGQGTTVTVSS
VL: QSVLTQPPSVSGAPGQRVTISCTGSSSNIGAGYDVHWYQQLPGTAPKLLIYGNSNRPSGVPDRFSGSKSGTSASLAITGLQAEDEADYYCQSYDSSLSGSYVFGTGTKVTVLG

target: SARS-CoV-2 Spike Protein (RBD) (R319-F541).hFc (SARS-CoV-2); experiment: Luminex beads, supernatant

| Binder | MFI |
| --- | --- |
| B1 | 30800 MFI |
| B2 | 30000 MFI |
| B3 | 22400 MFI |
| B4 | 33100 MFI |
| B5 | 28700 MFI |
| B6 | 31800 MFI |
| B7 | 31200 MFI |
| B8 | 29600 MFI |
| B9 | 31100 MFI |

target: Bt-SARS-CoV-2 Spike Protein (RBD) (R319-F541).mFc (SARS-CoV-2); experiment: Luminex beads, supernatant

| Binder | MFI |
| --- | --- |
| B1 | 17900 MFI |
| B2 | 16700 MFI |
| B3 | 11200 MFI |
| B4 | 19200 MFI |
| B5 | 16800 MFI |
| B6 | 18400 MFI |
| B7 | 16800 MFI |
| B8 | 13700 MFI |
| B9 | 15500 MFI |

target: SARS-CoV-2 Spike Protein (RBD) (R319-F541).mFc (SARS-CoV-2); experiment: Luminex beads, supernatant

| Binder | MFI |
| --- | --- |
| B1 | 30400 MFI |
| B2 | 28700 MFI |
| B3 | 19600 MFI |
| B4 | 32400 MFI |
| B5 | 29600 MFI |
| B6 | 31300 MFI |
| B7 | 30800 MFI |
| B8 | 27100 MFI |
| B9 | 29400 MFI |

Source: patent publication US20260234738A1 (Regeneron, published 2026)
